Data set [1] relates to HeLa Kyoto. Nature of the data set: thermal stability score vs G1/S (z-score of summed log2 fold changes over temperatures); higher = more thermally stable than in G1/S.
Data set [2] concerns HeLa Kyoto. Kind of data set: solubility in G1/S (NP-40 vs SDS abundance) (log2 ratio); higher = more soluble. The note with it: cell cycle stage: G1/S.
Data set [3] deals with HeLa Kyoto. Kind of data set: solubility change mitosis vs G1/S (difference of NP-40 vs SDS log2 ratios) (log2 ratio difference); higher = more soluble in mitosis.
The test system of data set [4] is HeLa Kyoto. Nature of the data set: melting temperature (median over replicates), in situ; higher = more thermally stable.
Setting [5] is: cell cycle stage: early G1 (4.5 h after nocodazole release).
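Wherever melting temperature (median over replicates), in situ is given: HeLa Kyoto cells synchronized by double thymidine or nocodazole block, proteins quantified by TMT10plex mass spectrometry, three independent biological replicates.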
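Wherever solubility change mitosis vs G1/S (difference of NP-40 vs SDS log2 ratios) is given: synchronized HeLa Kyoto cells (double thymidine block for G1/S, nocodazole release for mitosis), protein amounts in NP-40 versus SDS lysates quantified by mass spectrometry, three biological replicates.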
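Wherever solubility in G1/S (NP-40 vs SDS abundance) is given: HeLa Kyoto cells arrested at G1/S by double thymidine block, proteins quantified by TMT10plex mass spectrometry in mild NP-40 versus SDS extracts, three biological replicates.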
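Wherever thermal stability score vs G1/S (z-score of summed log2 fold changes over temperatures) is given: synchronized HeLa Kyoto cells, proteins quantified by TMT10plex mass spectrometry, three biological replicates, mitosis taken 0.5 h after nocodazole release, G1/S directly after double thymidine block.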

As for “MAVFRSGLLVLTTPLASLAPRLASILTSAARLVNHTLYVHLQPGMSLEGPAQPQSSPVQATFEVLDFITHLYAGADVHRHLDVRILLTNIRTKSTFLPPLPTSVQNLAHPPEVVLTDFQTLDGSQYNPVKQQLVRYATSCYSCCPRLASVLLYSDYGIGEVPVEPLDVPLPSTIRPASPVAGSPKQPVRGYYRGAVGGTFDRLHNAHKVLLSVACILAQEQLVVGVADKDLLKSKLLPELLQPYTERVEHLSEFLVDIKPSLTFDVIPLLDPYGPAGSDPSLEFLVVSEETYRGGMAINRFRLENDLEELALYQIQLLKDLRHTENEEDKVSSSSFRQRMLGNLLRPPYERPELPTCLYVIGLTGISGSGKSSIAQRLKGLGAFVIDSDHLGHRAYAPGGPAYQPVVEAFGTDILHKDGIINRKVLGSRVFGNKKQLKILTDIMWPIIAKLAREEMDRAVAEGKRVCVIDAAVLLEAGWQNLVHEVWTAVIPETEAVRRIVERDGLSEAAAQSRLQSQMSGQQLVEQSHVVLSTLWEPHITQRQVEKAWALLQKRIPKTHQALD [COASY]”, the thermal stability score with HeLa Kyoto [1] (setting [5]) worked out at 2.77; in the data set with HeLa Kyoto [1] (cell cycle stage: mitosis), 4.34. Further, in the data set on HeLa Kyoto [2], the “solubility in G1/S (log2)” value came out at 0.236. Besides, the “solubility change mitosis (log2)” value with HeLa Kyoto [3] was -0.14. The melting temperature with HeLa Kyoto [4] (cell cycle stage: G1/S) stood at 48.1 °C; with HeLa Kyoto [4] (cell cycle stage: mitosis), 48.8 °C.

Consider “MAVLAALLRSGARSRSPLLRRLVQEIRYVERSYVSKPTLKEVVIVSATRTPIGSFLGSLSLLPATKLGSIAIQGAIEKAGIPKEEVKEAYMGNVLQGGEGQAPTRQAVLGAGLPISTPCTTINKVCASGMKAIMMASQSLMCGHQDVMVAGGMESMSNVPYVMNRGSTPYGGVKLEDLIVKDGLTDVYNKIHMGSCAENTAKKLNIARNEQDAYAINSYTRSKAAWEAGKFGNEVIPVTVTVKGQPDVVVKEDEEYKRVDFSKVPKLKTVFQKENGTVTAANASTLNDGAAALVLMTADAAKRLNVTPLARIVAFADAAVEPIDFPIAPVYAASMVLKDVGLKKEDIAMWEVNEAFSLVVLANIKMLEIDPQKVNINGGAVSLGHPIGMSGARIVGHLTHALKQGEYGLASICNGGGGASAMLIQKL [ACAT1]”, for which the thermal stability score in the data set with HeLa Kyoto [1] (setting [5]) was -1.2; with HeLa Kyoto [1] (cell cycle stage: mitosis) it was 0.833. For the same sequence, the “solubility in G1/S (log2)” value with HeLa Kyoto [2] stood at 0.493. Further, the “solubility change mitosis (log2)” value in the data set on HeLa Kyoto [3] was -0.0153. The melting temperature in the data set on HeLa Kyoto [4] (cell cycle stage: G1/S) stood at 54.5 °C; in the data set on HeLa Kyoto [4] (cell cycle stage: mitosis), 54.8 °C.

As for “MAVPGDAARVRDKPVHSGVSQAPTAGRDCHHRADPASPRDSGCRGCWGDLVLQPLRSSRKLSSALCAGSLSFLLALLVRLVRGEVGCDLEQCKEAAAAEEEEAAPGAEGGVFPGPRGGAPGGGARLSPWLQPSALLFSLLCAFFWMGLYLLRAGVRLPLAVALLAACCGGEALVQIGLGVGEDHLLSLPAAGVVLSCLAAATWLVLRLRLGVLMIALTSAVRTVSLISLERFKVAWRPYLAYLAGVLGILLARYVEQILPQSAEAAPREHLGSQLIAGTKEDIPVFKRRRRSSSVVSAEMSGCSSKSHRRTSLPCIPREQLMGHSEWDHKRGPRGSQSSGTSITVDIAVMGEAHGLITDLLADPSLPPNVCTSLRAVSNLLSTQLTFQAIHKPRVNPVTSLSENYTCSDSEESSEKDKLAIPKRLRRSLPPGLLRRVSSTWTTTTSATGLPTLEPAPVRRDRSTSIKLQEAPSSSPDSWNNPVMMTLTKSRSFTSSYAISAANHVKAKKQSRPGALAKISPLSSPCSSPLQGTPASSLVSKISAVQFPESADTTAKQSLGSHRALTYTQSAPDLSPQILTPPVICSSCGRPYSQGNPADEPLERSGVATRTPSRTDDTAQVTSDYETNNNSDSSDIVQNEDETECLREPLRKASACSTYAPETMMFLDKPILAPEPLVMDNLDSIMEQLNTWNFPIFDLVENIGRKCGRILSQVSYRLFEDMGLFEAFKIPIREFMNYFHALEIGYRDIPYHNRIHATDVLHAVWYLTTQPIPGLSTVINDHGSTSDSDSDSGFTHGHMGYVFSKTYNVTDDKYGCLSGNIPALELMALYVAAAMHDYDHPGRTNAFLVATSAPQAVLYNDRSVLENHHAAAAWNLFMSRPEYNFLINLDHVEFKHFRFLVIEAILATDLKKHFDFVAKFNGKVNDDVGIDWTNENDRLLVCQMCIKLADINGPAKCKELHLQWTDGIVNEFYEQGDEEASLGLPISPFMDRSAPQLANLQESFISHIVGPLCNSYDSAGLMPGKWVEDSDESGDTDDPEEEEEEAPAPNEEETCENNESPKKKTFKRRKIYCQITQHLLQNHKMWKKVIEEEQRLAGIENQSLDQTPQSHSSEQIQAIKEEEEEKGKPRGEEIPTQKPDQ [PDE3A]”, the thermal stability score with HeLa Kyoto [1] (setting [5]) is -2.5; in the data set with HeLa Kyoto [1] (cell cycle stage: mitosis), -4.37. Further, the “solubility in G1/S (log2)” value in the data set on HeLa Kyoto [2] stood at 0.0669. Further, the “solubility change mitosis (log2)” value in the data set with HeLa Kyoto [3] is -0.179. For the same sequence, the melting temperature with HeLa Kyoto [4] (cell cycle stage: G1/S) was 51.8 °C; in the data set on HeLa Kyoto [4] (cell cycle stage: mitosis), 49.6 °C.

With “MAVTITLKTLQQQTFKIRMEPDETVKVLKEKIEAEKGRDAFPVAGQKLIYAGKILSDDVPIRDYRIDEKNFVVVMVTKTKAGQGTSAPPEASPTAAPESSTSFPPAPTSGMSHPPPAAREDKSPSEESAPTTSPESVSGSVPSSGSSGREEDAASTLVTGSEYETMLTEIMSMGYERERVVAALRASYNNPHRAVEYLLTGIPGSPEPEHGSVQESQVSEQPATEAAGENPLEFLRDQPQFQNMRQVIQQNPALLPALLQQLGQENPQLLQQISRHQEQFIQMLNEPPGELADISDVEGEVGAIGEEAPQMNYIQVTPQEKEAIERLKALGFPESLVIQAYFACEKNENLAANFLLSQNFDDE [RAD23A]”, the thermal stability score in the data set on HeLa Kyoto [1] (setting [5]) is -1.83; in the data set with HeLa Kyoto [1] (cell cycle stage: mitosis), -1.48. The “solubility in G1/S (log2)” value with HeLa Kyoto [2] worked out at 0.0728. Moreover, the “solubility change mitosis (log2)” value in the data set on HeLa Kyoto [3] was 0.0994. In addition, the melting temperature in the data set with HeLa Kyoto [4] (cell cycle stage: G1/S) was found to be 56.3 °C; in the data set on HeLa Kyoto [4] (cell cycle stage: mitosis), 55.5 °C.

Turning to “MAVVIRLQGLPIVAGTMDIRHFFSGLTIPDGGVHIVGGELGEAFIVFATDEDARLGMMRTGGTIKGSKVTLLLSSKTEMQNMIELSRRRFETANLDIPPANASRSGPPPSSGMSSRVNLPTTVSNFNNPSPSVVTATTSVHESNKNIQTFSTASVGTAPPNMGASFGSPTFSSTVPSTASPMNTVPPPPIPPIPAMPSLPPMPSIPPIPVPPPVPTLPPVPPVPPIPPVPSVPPMTPLPPMSGMPPLNPPPVAPLPAGMNGSGAPMNLNNNLNPMFLGPLNPVNPIQMNSQSSVKPLPINPDDLYVSVHGMPFSAMENDVRDFFHGLRVDAVHLLKDHVGRNNGNGLVKFLSPQDTFEALKRNRMLMIQRYVEVSPATERQWVAAGGHITFKQNMGPSGQTHPPPQTLPRSKSPSGQKRSRSRSPHEAGFCVYLKGLPFEAENKHVIDFFKKLDIVEDSIYIAYGPNGKATGEGFVEFRNEADYKAALCRHKQYMGNRFIQVHPITKKGMLEKIDMIRKRLQNFSYDQREMILNPEGDVNSAKVCAHITNIPFSITKMDVLQFLEGIPVDENAVHVLVDNNGQGLGQALVQFKNEDDARKSERLHRKKLNGREAFVHVVTLEDMREIEKNPPAQGKKGLKMPVPGNPAVPGMPNAGLPGVGLPSAGLPGAGLPSTGLPGSAITSAGLPGAGMPSAGIPSAGGEEHAFLTVGSKEANNGPPFNFPGNFGGSNAFGPPIPPPGLGGGAFGDARPGMPSVGNSGLPGLGLDVPGFGGGPNNLSGPSGFGGGPQNFGNGPGSLGGPPGFGSGPPGLGSAPGHLGGPPAFGPGPGPGPGPGPIHIGGPPGFASSSGKPGPTVIKVQNMPFTVSIDEILDFFYGYQVIPGSVCLKYNEKGMPTGEAMVAFESRDEATAAVIDLNDRPIGSRKVKLVLG [RBM12]”, the thermal stability score amounted to 1.03 in the data set on HeLa Kyoto [1] (setting [5]) and 4.25 in the data set with HeLa Kyoto [1] (cell cycle stage: mitosis). For the same sequence, the “solubility in G1/S (log2)” value with HeLa Kyoto [2] is 0.344. Further, the “solubility change mitosis (log2)” value with HeLa Kyoto [3] was -0.147. Moreover, the melting temperature in the data set on HeLa Kyoto [4] (cell cycle stage: G1/S) was 48.7 °C; in the data set with HeLa Kyoto [4] (cell cycle stage: mitosis), 49.2 °C.

(Values after the supplement of paper PMC5998384.)
